Source: paper PMC9772344

Experiments:
Settings in all cases: chain shown with the change; transfected HeLa cells; n = 3 per group; parent: est. 1.0; read off a plot
[1] = target: stromal-interacting molecule 1 (STIM1), Q13586; test: Co-IP (GLT-1 capture antibody, immunoblot for STIM1, band quantification)
Orai1, Q96D31 = test: Co-IP (GLT-1 capture antibody, immunoblot for Orai1, band quantification)
[2] = target: stromal-interacting molecule 1 (STIM1), Q13586; test: Co-IP (STIM1 capture antibody, immunoblot for GLT-1, band quantification)

Sequence of Orai1, Q96D31 (Q96D31 whole entry): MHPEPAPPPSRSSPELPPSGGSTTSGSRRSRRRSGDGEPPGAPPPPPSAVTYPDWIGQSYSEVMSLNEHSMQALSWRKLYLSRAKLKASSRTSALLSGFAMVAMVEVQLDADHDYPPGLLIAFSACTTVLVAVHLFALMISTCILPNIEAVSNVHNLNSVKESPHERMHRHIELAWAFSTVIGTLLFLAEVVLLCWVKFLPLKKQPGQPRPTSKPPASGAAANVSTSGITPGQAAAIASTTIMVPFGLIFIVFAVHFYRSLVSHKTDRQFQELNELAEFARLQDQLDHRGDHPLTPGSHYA
Sequence of stromal-interacting molecule 1 (STIM1), Q13586 (Q13586 23-685): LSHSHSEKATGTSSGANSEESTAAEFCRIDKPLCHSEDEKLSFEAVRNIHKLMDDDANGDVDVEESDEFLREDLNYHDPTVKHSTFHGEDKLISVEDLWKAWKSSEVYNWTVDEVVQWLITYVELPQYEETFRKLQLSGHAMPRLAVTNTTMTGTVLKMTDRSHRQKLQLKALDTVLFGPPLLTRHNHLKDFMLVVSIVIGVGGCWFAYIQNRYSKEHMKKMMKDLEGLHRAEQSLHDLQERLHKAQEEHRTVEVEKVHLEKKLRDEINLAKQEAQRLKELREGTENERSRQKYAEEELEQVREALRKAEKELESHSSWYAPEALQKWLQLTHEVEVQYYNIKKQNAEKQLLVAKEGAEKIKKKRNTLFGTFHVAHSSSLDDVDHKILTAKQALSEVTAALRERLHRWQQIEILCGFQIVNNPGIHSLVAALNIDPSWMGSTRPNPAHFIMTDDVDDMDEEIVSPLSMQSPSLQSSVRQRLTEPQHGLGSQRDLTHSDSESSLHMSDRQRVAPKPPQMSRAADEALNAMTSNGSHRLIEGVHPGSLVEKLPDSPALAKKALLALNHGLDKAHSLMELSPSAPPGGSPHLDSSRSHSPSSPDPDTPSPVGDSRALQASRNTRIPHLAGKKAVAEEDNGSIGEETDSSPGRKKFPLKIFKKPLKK

B1: glutamate transporter GLT-1 (excitatory amino acid transporter 2, EAAT2), WT plasmid, P43006 G82R; L85P (protein)
chain: MASTEGANNMPKQVEVRMHDSHLSSDEPKHRNLGMRMCDKLGKNLLLSLTVFGVILGAVCGGLLRLASPIHPDVVMLIAFPRDIPMRMLKMLILPLIISSLITGLSGLDAKASGRLGTRAMVYYMSTTIIAAVLGVILVLAIHPGNPKLKKQLGPGKKNDEVSSLDAFLDLIRNLFPENLVQACFQQIQTVTKKVLVAPPSEEANTTKAVISMLNETMNEAPEETKIVIKKGLEFKDGMNVLGLIGFFIAFGIAMGKMGEQAKLMVEFFNILNEIVMKLVIMIMWYSPLGIACLICGKIIAIKDLEVVARQLGMYMITVIVGLIIHGGIFLPLIYFVVTRKNPFSFFAGIFQAWITALGTASSAGTLPVTFRCLEDNLGIDKRVTRFVLPVGATINMDGTALYEAVAAIFIAQMNGVILDGGQIVTVSLTATLASIGAASIPSAGLVTMLLILTAVGLPTEDISLLVAVDWLLDRMRTSVNVVGDSFGAGIVYHLSKSELDTIDSQHRMQEDIEMTKTQSIYDDKNHRESNSNQCVYAAHNSVVIDECKVTLAANGKSADCSVEEEPWKREK
response (relative band intensity) [1]: 0.08 | response (relative band intensity) (Orai1, Q96D31): 0.27 | response (relative band intensity) [2]: 0.12

B2: glutamate transporter GLT-1 (excitatory amino acid transporter 2, EAAT2), WT plasmid, P43006 G82R (protein)
chain: MASTEGANNMPKQVEVRMHDSHLSSDEPKHRNLGMRMCDKLGKNLLLSLTVFGVILGAVCGGLLRLASPIHPDVVMLIAFPRDILMRMLKMLILPLIISSLITGLSGLDAKASGRLGTRAMVYYMSTTIIAAVLGVILVLAIHPGNPKLKKQLGPGKKNDEVSSLDAFLDLIRNLFPENLVQACFQQIQTVTKKVLVAPPSEEANTTKAVISMLNETMNEAPEETKIVIKKGLEFKDGMNVLGLIGFFIAFGIAMGKMGEQAKLMVEFFNILNEIVMKLVIMIMWYSPLGIACLICGKIIAIKDLEVVARQLGMYMITVIVGLIIHGGIFLPLIYFVVTRKNPFSFFAGIFQAWITALGTASSAGTLPVTFRCLEDNLGIDKRVTRFVLPVGATINMDGTALYEAVAAIFIAQMNGVILDGGQIVTVSLTATLASIGAASIPSAGLVTMLLILTAVGLPTEDISLLVAVDWLLDRMRTSVNVVGDSFGAGIVYHLSKSELDTIDSQHRMQEDIEMTKTQSIYDDKNHRESNSNQCVYAAHNSVVIDECKVTLAANGKSADCSVEEEPWKREK
response (relative band intensity) [1]: 0.15 | response (relative band intensity) (Orai1, Q96D31): 0.22 | response (relative band intensity) [2]: 0.15

B3: glutamate transporter GLT-1 (excitatory amino acid transporter 2, EAAT2), WT plasmid, P43006 L85P (protein)
chain: MASTEGANNMPKQVEVRMHDSHLSSDEPKHRNLGMRMCDKLGKNLLLSLTVFGVILGAVCGGLLRLASPIHPDVVMLIAFPGDIPMRMLKMLILPLIISSLITGLSGLDAKASGRLGTRAMVYYMSTTIIAAVLGVILVLAIHPGNPKLKKQLGPGKKNDEVSSLDAFLDLIRNLFPENLVQACFQQIQTVTKKVLVAPPSEEANTTKAVISMLNETMNEAPEETKIVIKKGLEFKDGMNVLGLIGFFIAFGIAMGKMGEQAKLMVEFFNILNEIVMKLVIMIMWYSPLGIACLICGKIIAIKDLEVVARQLGMYMITVIVGLIIHGGIFLPLIYFVVTRKNPFSFFAGIFQAWITALGTASSAGTLPVTFRCLEDNLGIDKRVTRFVLPVGATINMDGTALYEAVAAIFIAQMNGVILDGGQIVTVSLTATLASIGAASIPSAGLVTMLLILTAVGLPTEDISLLVAVDWLLDRMRTSVNVVGDSFGAGIVYHLSKSELDTIDSQHRMQEDIEMTKTQSIYDDKNHRESNSNQCVYAAHNSVVIDECKVTLAANGKSADCSVEEEPWKREK
response (relative band intensity) [1]: 0.12 | response (relative band intensity) (Orai1, Q96D31): 0.17 | response (relative band intensity) [2]: 0.13
